Read-outs that look alike come from different tables or passages of the source. Each block holds one binder with its values, some of them ahead of it.
Legend:
[1] = biological target: T1, human 4-1BB His protein (Sinobiological, Beijing #10041-H08H) (human, UniProt Q07011 24-186, biotinylated in the capture ELISA (sites not given)); assay: SPR Biacore T200, antibody amine-coupled, 4-1BB His as analyte, 1:1 model
T1 construct: Bought protein; also called biotinylated 4-1BB-his protein; not shown: His tag
Experimental: (§1) The recombinant anti-4-1BB antibodies to be tested of the present application were covalently linked to CMS (GE) chip by NHS standard amino coupling method with a kit available from Biacore. Then, a series of gradient concentrations of human 4-1BB His protein (Sinobiological, Beijing #10041-H08H) diluted in the same buffer were injected at a flow rate of 10 μL/min. Regeneration was performed with regeneration reagents provided in the kit. Antigen-antibody binding kinetics were followed for 3 minutes and dissociation kinetics were followed for 10 minutes. The resulting data were analyzed using 1:1 (Langmuir) binding model with BIAevaluation software available from GE.

[2] = biological target: T1, human 4-1BB His protein …; assay: as above; remark: listed apart in the source
Experimental: as §1

[3] = biological target: T1, human 4-1BB His protein …; assay: capture ELISA, antibody captured, biotinylated 4-1BB-his
Experimental: The goat anti-mouse IgG secondary antibody (Jackson Immuno Research, cat #115-006-071) was diluted to a concentration of 2 μg/ml with PBS buffer, pH 7.4, added into a 96-well microtiter plate at 100 μl/well, and placed in an incubator at 37° C. for 2 hours. The plate was washed once with PBST, 200 μl/well of 5% skim milk (skim milk powder, Bright Dairy) blocking solution diluted with PBST was added, and incubated at 37° C. for 2 hours or at 4° C. overnight (16-18 hours) for blocking. After the blocking was finished, the blocking solution was discarded and the plate was washed 4 times with PBST.
The test mouse sera or antibodies were diluted to various concentrations with 5% NHS sample dilution solution (2.5% skim milk in PBST), incubated at room temperature for 40 minutes, added into the plate at 100 μl/well, and incubated at 37° C. for 40 minutes. After the incubation, the plate was washed 4 times with PBST, 100 μl/well of the biotinylated 4-1BB-his protein (Sinobiological, Beijing #10041-H08H) diluted with the sample dilution solution was added, and incubated at 37° C. for 40 minutes. After the incubation, the plate was washed 4 times with PBST, 100 μl/well of HRP-labeled streptavidin (Jackson Immuno Research, cat #016-030-084) diluted with PBST was added, and incubated at 37° C. for 40 minutes. The plate was washed 4 times with PBST, 100 μl/well of TMB chromogenic substrate (Huzhou Innoreagents Biotechnology Co., Ltd.) was added, incubated at room temperature for 10-15 min in the dark, and 50 μl/well 1M H₂SO₄ was added to terminate the reaction. The absorbance was read at 450 nm under a microplate reader (Beijing Prang New Technology Co., Ltd., Model DNM-9602) and the resulting data were analyzed. The capture ELISA results of three hybridoma mouse antibodies and the Pfizer reference antibody MOR7480 and the BMS reference antibody Urelumab were shown in FIG. 1.

[4] = biological target: human 4-1BB on the reporter cell strain HEK293F-h4-1BB-NFkB (human, UniProt Q07011 24-255); assay: cell-based or functional assay
Sequence of human 4-1BB on the reporter cell strain HEK293F-h4-1BB-NFkB (Q07011 24-255): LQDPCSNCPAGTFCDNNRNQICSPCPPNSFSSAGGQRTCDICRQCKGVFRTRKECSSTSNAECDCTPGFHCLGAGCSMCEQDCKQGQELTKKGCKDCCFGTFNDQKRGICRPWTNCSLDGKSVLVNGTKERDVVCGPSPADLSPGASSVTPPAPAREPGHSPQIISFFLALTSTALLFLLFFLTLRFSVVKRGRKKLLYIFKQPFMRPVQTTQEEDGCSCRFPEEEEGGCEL

[5] = biological target: T1, human 4-1BB His protein …; assay: blocking ELISA: 4-1BB-his coated, antibody varied, competitor 4-1BBL-Fc at 0.8 ng/ml
Experimental: The 4-1BB-his protein was diluted to a concentration of 2 μg/ml with a carbonate buffer pH 9.6, and added into a 96-well microtiter plate at a volume of 100 μl/well, and placed in an incubator at 37° C. for 2 hours. The plate was washed once with PBST, 200 μl/well of 5% skim milk (skim milk powder, Bright Dairy) blocking solution diluted with PBST was added, and incubated at 37° C. for 2 hours or at 4° C. overnight (16-18 hours) for blocking. After the blocking was finished, the blocking solution was discarded and the plate was washed 4 times with PBST.
The test mouse sera or antibodies and internal control 4-1BBL were diluted to various concentrations with a sample diluent solution (2.5% skim milk in PBST), added into a plate at 100 μl/well, and incubated in an incubator at 37° C. for 40 minutes. After the incubation, the plate was washed 4 times with PBST, 100 μl/well of 0.8 ng/ml 4-1BBL-Fc (Acro, #41L-H5257) protein diluted with a sample dilution solution was added, and incubated at 37° C. for 40 minutes. […] The absorbance was read at 450 nm under a microplate reader (Beijing Prang New Technology Co., Ltd., Model DNM-9602) and the resulting data were analyzed. […]

[6] = biological target: T1, human 4-1BB His protein …; assay: SPR Biacore T200

Kd [1]: 0.417 nM
koff [1]: 0.000336 s⁻¹
kon [1]: 805000 M⁻¹ s⁻¹
Kd [2]: 0.417 nM
koff [2]: 0.000336 s⁻¹
kon [2]: 805000 M⁻¹ s⁻¹
EC50 [3]: 0.084 µg/mL
B1: MOR7480 (Pfizer) (antibody, V domains shown)
VH: QVQLVQSGAEVKKPGESLKISCKGSGYSFSTYWISWVRQMPGKGLEWMGKIYPGDSYTNYSPSFQGQVTISADKSISTAYLQWSSLKASDTAMYYCARGYGIFDYWGQGTLVTVSS
VL: DIELTQPPSVSVAPGQTARISCSGDNIGDQYAHWYQQKPGQAPVVVIYQDKNRPSGIPERFSGSNSGNTATLTISGTQAEDEADYYCATYTGFGSLAVFGGGTKLTVL

luciferase activity [4]: 2520
EC50 [3]: 0.881 µg/mL
B2: murine mAb B1E10 (antibody, V domains shown)
VH: EVQLVESGGGLVEPGGSLKLSCAASGFTFGDYYMYWVRQTPEKRLEWVATISDGGSYTYYPDNVKGRFTISRDNAKNSLDLQMSHLKSEDTAMYYCARYYSKALYAMDYWGRGTSVTVSS
VL: DIVLTQSPASLAVSLGQRATLSCRASKSVSTSGFSYIHWYQQKPGQPPKLLIYTASNLESGVPARFSGSGSGTDFTLNIHPVEEEDAATYYCQHSRELPLTFGAGTKLEVK
notes: Murine hybridoma antibody

Kd [2]: 0.423 nM
koff [2]: 0.000542 s⁻¹
kon [2]: 1.28e+06 M⁻¹ s⁻¹
B3: chimeric antibody ChB1E10 (antibody, V domains shown)
VH: B2 VH
VL: B2 VL

EC50 [5]: 0.417 µg/mL
luciferase activity [4]: 965
EC50 [3]: 0.0559 µg/mL
B4: murine mAb B1A7 (antibody, V domains shown)
VH: QVTLKESGPGILQPSQTLSLTCSFSGFSLSTSGMGVGWIRQPSGKGLEWLAHIWWDDVKRYNPALKSRLTISKDTSSSQVFLKIASVDTADTATYYCAQMTSSVFAYWGQGTLVTVSA
VL: DIVLTQSPDSLAVSLGQRATISCRASESVDSYGHSFMHWYQQKPGQPPKLLIYRASNLESGIPARFSGSGSRTDFTLTINVVEADDVATYYCHQSYEEPWTFGGGTKLEIK
notes: Murine hybridoma antibody

EC50 [5]: 0.592 µg/mL
luciferase activity [4]: 1100
EC50 [3]: 0.332 µg/mL
B5: murine mAb B1E7 (antibody, V domains shown)
VH: EVQLQQSGAELVRAGSSVEMSCKASGYTFTSYGLNWVKQRPGQGLEWIGYINPGSGYTKYNEKFEGKTTLTVDKSSSTVYMQLRSLTSEDSAVYFCARWGLGRNWNFAVWGTGTTVTVSS
VL: DIVLTQSPASLAVSLGQRATMSCRASESVDSYGNTFMHWYQQKPGQPPKLLIYRASNLESGIPARFSGSGSGTDFTLTINPVEADDVATYYCQQSNEDPLTFGSGTKLEIK
notes: Murine hybridoma antibody

Kd [2]: 1.48 nM
koff [2]: 0.006 s⁻¹
kon [2]: 4.05e+06 M⁻¹ s⁻¹
B6: chimeric antibody ChB1E7 (antibody, V domains shown)
VH: B5 VH
VL: B5 VL

Kd [1]: 0.267 nM
koff [1]: 0.00263 s⁻¹
kon [1]: 9.85e+06 M⁻¹ s⁻¹
fold affinity against the reference antibody MOR7480 [6]: ~2 fold
B7: humanized antibody huB1E10 (VH-c heavy chain and VL-c light chain) (antibody, human IgG2, kappa, V domains shown)
VH: EVQLVESGGGVVQPGRSLRLSCAASGFTFGDYYMYWVRQAPGKGLEWVATISEGGSYTYYPDNVKGRFTISRDNAKNTLYLQMNSLRAEDTAVYYCARYYSKALYAMDYWGRGTLVTVSS
VL: EIVLTQSPATLSLSPGERATLSCRASKSVSTSGFSYIHWYQQKPGQPPRLLIYTASNLESGVPARFSGSGSGTDFTLTISSLEPEDFAVYYCQHSRELPLTFGQGTKLEVKR
notes: also called huB1E10-IgG1

Kd [1]: 1.95 nM
koff [1]: 0.00663 s⁻¹
kon [1]: 3.39e+06 M⁻¹ s⁻¹
B8: humanized antibody huB1E7 (VH-c heavy chain and VL-c light chain) (antibody, human IgG2, kappa, V domains shown)
VH: EVQLVQSGAEVKKPGSSVKVSCKASGYTFTSYGLNWVRQAPGQGLEWMGYINPGSGYTKYNEKFEGRVTITADKSTSTAYMELSSLRSEDTAVYYCARWGLGRNWNFAVWGQGTLVTVSS
VL: DIVMTQSPDSLAVSLGERATINCRASESVDSYGNTFMHWYQQKPGQPPKLLIYRASNLESGVPDRFSGSGSGTDFTLTISSLQAEDVAVYYCQQSNEDPLTFGQGTKLEIKR
notes: also called huB1E7-IgG1

— US20210363266A1 (JIANGSU HENGRUI MEDICINE, published 2021)
